According to patent publication US20030049831A1 (published 2003):
Values belong to the binder of their own block, whether it stands above or below them.

Columns and labels:
[1] = target: T1, human C5b-6 complexes (human, UniProt P01031 752-1676; P01031 19-673; P13671 22-934); assay: ELISA, Factor H coated at 50 to 0.4 pmol/well, C5b-6 detected with anti-C6 K1.115
T1 construct: Complex of C5b and C6
Procedure: (§1) Binding of C3b, C5b-6 and HSA to recombinant FHR-5 (panel A) or Factor H (panel B) was determined by ELISA.
(§2) Recombinant FHR-5 or Factor H (Sigma) were serially diluted 1:2 in 0.1 M carbonate buffer, pH 9.3. Duplicate wells in microtitre plates were incubated with dilutions of FHR-5 or Factor H from 50 pmol/well to 0.4 pmol/well. The plates were blocked and wells incubated with human C3b, C5b-6 or HSA at 10 μg/well. C3b was detected by incubation with polyclonal rabbit anti-C3 antibody (1:1000 dilution) followed by peroxidase-conjugated swine anti-rabbit antibody (1:2000 dilution). C5b-6 and HSA were detected using K1.115 (anti-C6) and anti-HSA monoclonal antibodies, respectively, (1:500 dilution) followed by peroxidase-conjugated rabbit anti-mouse antibody (1:2000 dilution). The ELISAs were developed with O-phenylenediamine dihydrochloride. The reaction was stopped with 4M H₂SO₄ and the optical density of the solution was measured at a wavelength of 492 nm using a Behring EL31 microplate reader.

[2] = target: T1, human C5b-6 complexes; assay: ELISA, rFHR-5 coated at 50 to 0.4 pmol/well, C5b-6 detected with anti-C6 K1.115
Procedure: as §1, §2

[3] = target: human serum albumin (HSA) (human, UniProt P02768 25-609); assay: ELISA, rFHR-5 coated at 50 to 0.4 pmol/well, HSA detected with anti-HSA monoclonal antibody
Procedure: as §1, §2

[4] = target: human C3b (human, UniProt P01024 749-1663; P01024 23-667); assay: ELISA, rFHR-5 coated at 50 to 0.4 pmol/well, C3b at 10 µg/well, detected with polyclonal anti-C3
Procedure: as §1, §2

T1 sequence (P01031 752-1676 limits assumed, chain 1 of 3): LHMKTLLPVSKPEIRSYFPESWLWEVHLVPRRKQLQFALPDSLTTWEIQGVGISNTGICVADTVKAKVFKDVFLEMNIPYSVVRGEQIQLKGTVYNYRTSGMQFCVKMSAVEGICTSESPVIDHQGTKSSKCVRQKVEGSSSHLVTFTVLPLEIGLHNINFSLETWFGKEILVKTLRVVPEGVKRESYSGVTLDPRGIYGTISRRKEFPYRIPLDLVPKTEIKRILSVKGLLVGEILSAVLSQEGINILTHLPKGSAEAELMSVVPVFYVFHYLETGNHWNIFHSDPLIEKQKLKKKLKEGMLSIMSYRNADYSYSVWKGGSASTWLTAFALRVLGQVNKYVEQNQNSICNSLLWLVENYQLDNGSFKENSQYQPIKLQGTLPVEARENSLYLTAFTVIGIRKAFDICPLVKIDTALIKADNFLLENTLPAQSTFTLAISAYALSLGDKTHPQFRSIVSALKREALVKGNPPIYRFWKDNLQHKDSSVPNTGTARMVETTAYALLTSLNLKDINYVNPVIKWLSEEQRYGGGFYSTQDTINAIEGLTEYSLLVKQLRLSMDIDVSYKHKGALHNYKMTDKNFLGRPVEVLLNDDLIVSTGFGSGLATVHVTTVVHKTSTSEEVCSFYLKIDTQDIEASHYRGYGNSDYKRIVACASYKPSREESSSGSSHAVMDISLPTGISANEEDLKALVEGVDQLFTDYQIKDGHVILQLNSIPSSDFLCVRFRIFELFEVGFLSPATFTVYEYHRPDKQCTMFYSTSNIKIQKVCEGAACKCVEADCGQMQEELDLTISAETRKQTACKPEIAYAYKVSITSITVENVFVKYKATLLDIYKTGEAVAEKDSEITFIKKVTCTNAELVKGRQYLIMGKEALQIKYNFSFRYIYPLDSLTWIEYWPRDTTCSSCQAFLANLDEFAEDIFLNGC
T1 sequence (P01031 19-673 limits assumed, chain 2 of 3): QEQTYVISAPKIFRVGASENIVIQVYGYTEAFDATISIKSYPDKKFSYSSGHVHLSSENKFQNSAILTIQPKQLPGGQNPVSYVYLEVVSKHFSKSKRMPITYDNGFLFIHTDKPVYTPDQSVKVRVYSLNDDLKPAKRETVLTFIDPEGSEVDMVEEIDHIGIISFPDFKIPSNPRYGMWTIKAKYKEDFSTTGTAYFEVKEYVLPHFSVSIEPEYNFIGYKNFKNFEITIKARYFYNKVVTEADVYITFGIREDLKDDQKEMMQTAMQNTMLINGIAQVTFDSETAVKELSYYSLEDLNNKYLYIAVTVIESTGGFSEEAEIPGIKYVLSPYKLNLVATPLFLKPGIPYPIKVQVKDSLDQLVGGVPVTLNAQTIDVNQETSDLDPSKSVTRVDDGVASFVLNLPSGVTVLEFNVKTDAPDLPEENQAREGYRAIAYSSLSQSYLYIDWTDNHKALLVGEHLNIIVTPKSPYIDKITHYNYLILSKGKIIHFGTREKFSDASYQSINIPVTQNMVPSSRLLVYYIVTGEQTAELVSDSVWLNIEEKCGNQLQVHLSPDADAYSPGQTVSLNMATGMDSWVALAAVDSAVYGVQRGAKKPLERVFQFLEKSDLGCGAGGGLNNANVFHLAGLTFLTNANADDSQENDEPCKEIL
T1 sequence (P13671 22-934 limits assumed, chain 3 of 3): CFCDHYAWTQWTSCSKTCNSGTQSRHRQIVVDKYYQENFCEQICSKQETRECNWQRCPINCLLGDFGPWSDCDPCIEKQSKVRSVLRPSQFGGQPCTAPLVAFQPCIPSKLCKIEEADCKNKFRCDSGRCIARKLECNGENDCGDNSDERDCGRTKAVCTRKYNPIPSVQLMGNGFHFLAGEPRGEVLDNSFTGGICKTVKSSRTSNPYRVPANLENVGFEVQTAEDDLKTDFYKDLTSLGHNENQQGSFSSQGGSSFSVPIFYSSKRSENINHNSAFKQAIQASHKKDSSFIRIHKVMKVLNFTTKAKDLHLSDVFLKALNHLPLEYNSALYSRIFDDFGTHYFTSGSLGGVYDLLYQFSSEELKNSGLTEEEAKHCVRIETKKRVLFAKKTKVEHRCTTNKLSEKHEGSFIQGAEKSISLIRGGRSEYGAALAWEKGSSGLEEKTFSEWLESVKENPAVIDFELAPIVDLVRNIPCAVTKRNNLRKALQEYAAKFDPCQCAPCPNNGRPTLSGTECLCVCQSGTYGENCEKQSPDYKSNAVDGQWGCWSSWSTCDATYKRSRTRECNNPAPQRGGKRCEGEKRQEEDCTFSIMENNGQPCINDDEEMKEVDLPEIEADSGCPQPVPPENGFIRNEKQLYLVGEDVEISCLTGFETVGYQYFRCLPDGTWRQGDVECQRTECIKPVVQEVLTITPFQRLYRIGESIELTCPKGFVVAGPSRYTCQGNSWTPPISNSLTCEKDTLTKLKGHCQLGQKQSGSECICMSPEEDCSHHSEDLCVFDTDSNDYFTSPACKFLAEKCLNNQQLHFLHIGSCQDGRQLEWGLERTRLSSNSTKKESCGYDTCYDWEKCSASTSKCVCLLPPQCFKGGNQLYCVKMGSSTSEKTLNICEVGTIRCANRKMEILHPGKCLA
Chain of human C3b (P01024 749-1663 limits assumed, chain 1 of 2): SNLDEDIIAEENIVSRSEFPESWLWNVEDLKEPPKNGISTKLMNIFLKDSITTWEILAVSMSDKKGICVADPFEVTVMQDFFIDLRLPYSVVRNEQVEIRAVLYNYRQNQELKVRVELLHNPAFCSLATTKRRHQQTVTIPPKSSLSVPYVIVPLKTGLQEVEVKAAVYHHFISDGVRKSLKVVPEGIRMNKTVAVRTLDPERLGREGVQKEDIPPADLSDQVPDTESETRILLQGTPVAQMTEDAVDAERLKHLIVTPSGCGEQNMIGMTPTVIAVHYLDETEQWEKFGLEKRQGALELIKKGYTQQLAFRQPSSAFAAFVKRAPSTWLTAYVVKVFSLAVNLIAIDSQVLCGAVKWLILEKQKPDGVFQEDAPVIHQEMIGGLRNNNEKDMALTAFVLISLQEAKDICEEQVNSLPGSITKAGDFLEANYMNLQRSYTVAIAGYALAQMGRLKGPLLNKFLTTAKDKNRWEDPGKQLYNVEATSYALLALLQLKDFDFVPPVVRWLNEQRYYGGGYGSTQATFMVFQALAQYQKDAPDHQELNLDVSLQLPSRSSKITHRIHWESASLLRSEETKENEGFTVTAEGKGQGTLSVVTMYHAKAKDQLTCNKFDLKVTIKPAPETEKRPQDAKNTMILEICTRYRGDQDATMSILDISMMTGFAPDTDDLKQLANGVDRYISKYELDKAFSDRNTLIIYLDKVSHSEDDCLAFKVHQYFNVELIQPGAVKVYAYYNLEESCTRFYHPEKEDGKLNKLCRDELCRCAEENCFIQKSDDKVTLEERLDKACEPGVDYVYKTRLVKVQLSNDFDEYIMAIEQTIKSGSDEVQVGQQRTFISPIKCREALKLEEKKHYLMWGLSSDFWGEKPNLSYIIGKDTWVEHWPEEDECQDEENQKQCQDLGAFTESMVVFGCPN
Chain of human C3b (P01024 23-667 limits assumed, chain 2 of 2): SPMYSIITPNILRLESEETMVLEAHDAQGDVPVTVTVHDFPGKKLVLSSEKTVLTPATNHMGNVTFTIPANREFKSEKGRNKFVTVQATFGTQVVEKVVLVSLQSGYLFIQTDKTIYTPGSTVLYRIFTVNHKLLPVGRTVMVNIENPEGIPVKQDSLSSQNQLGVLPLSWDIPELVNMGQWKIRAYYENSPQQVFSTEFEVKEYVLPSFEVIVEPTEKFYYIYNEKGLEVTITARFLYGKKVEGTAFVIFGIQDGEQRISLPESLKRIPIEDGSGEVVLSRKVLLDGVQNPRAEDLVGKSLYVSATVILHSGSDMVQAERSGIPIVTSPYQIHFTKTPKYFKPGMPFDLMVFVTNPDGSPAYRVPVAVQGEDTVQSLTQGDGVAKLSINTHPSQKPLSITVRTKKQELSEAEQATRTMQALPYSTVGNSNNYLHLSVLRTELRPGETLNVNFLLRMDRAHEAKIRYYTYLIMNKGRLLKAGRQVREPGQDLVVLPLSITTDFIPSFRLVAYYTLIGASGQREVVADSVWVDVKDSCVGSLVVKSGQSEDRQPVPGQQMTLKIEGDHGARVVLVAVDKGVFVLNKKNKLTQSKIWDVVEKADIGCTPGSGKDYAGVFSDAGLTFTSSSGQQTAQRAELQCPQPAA
Chain of human serum albumin (HSA) (P02768 25-609 limits assumed): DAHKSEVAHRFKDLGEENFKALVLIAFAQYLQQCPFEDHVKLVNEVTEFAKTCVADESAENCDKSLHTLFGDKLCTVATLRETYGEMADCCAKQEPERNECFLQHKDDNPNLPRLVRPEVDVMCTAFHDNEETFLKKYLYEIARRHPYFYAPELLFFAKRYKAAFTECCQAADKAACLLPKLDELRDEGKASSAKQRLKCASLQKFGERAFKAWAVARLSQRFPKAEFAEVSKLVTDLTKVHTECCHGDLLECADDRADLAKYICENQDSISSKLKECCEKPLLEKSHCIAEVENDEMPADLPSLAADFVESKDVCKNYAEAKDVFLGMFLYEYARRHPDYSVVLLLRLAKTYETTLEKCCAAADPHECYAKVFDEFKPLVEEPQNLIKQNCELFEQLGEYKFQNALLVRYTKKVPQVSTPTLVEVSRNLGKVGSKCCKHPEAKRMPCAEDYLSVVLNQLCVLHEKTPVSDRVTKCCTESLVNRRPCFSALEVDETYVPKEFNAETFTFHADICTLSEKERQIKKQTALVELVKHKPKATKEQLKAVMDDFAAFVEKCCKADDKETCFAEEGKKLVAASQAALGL

- binding result [1]: no binding (tested: 10 µg/well)
B1: Factor H (Sigma) (other, UniProt P08603 19-1231, looked up)
chain: EDCNELPPRRNTEILTGSWSDQTYPEGTQAIYKCRPGYRSLGNVIMVCRKGEWVALNPLRKCQKRPCGHPGDTPFGTFTLTGGNVFEYGVKAVYTCNEGYQLLGEINYRECDTDGWTNDIPICEVVKCLPVTAPENGKIVSSAMEPDREYHFGQAVRFVCNSGYKIEGDEEMHCSDDGFWSKEKPKCVEISCKSPDVINGSPISQKIIYKENERFQYKCNMGYEYSERGDAVCTESGWRPLPSCEEKSCDNPYIPNGDYSPLRIKHRTGDEITYQCRNGFYPATRGNTAKCTSTGWIPAPRCTLKPCDYPDIKHGGLYHENMRRPYFPVAVGKYYSYYCDEHFETPSGSYWDHIHCTQDGWSPAVPCLRKCYFPYLENGYNQNYGRKFVQGKSIDVACHPGYALPKAQTTVTCMENGWSPTPRCIRVKTCSKSSIDIENGFISESQYTYALKEKAKYQCKLGYVTADGETSGSITCGKDGWSAQPTCIKSCDIPVFMNARTKNDFTWFKLNDTLDYECHDGYESNTGSTTGSIVCGYNGWSDLPICYERECELPKIDVHLVPDRKKDQYKVGEVLKFSCKPGFTIVGPNSVQCYHFGLSPDLPICKEQVQSCGPPPELLNGNVKEKTKEEYGHSEVVEYYCNPRFLMKGPNKIQCVDGEWTTLPVCIVEESTCGDIPELEHGWAQLSSPPYYYGDSVEFNCSESFTMIGHRSITCIHGVWTQLPQCVAIDKLKKCKSSNLIILEEHLKNKKEFDHNSNIRYRCRGKEGWIHTVCINGRWDPEVNCSMAQIQLCPPPPQIPNSHNMTTTLNYRDGEKVSVLCQENYLIQEGEEITCKDGRWQSIPLCVEKIPCSQPPQIEHGTINSSRSSQESYAHGTKLSYTCEGGFRISEENETTCYMGKWSSPPQCEGLPCKSPPEISHGVVAHMSDSYQYGEEVTYKCFEGFGIDGPAIAKCLGEKWSHPPSCIKTDCLSLPSFENAIPMGEKKDVYKAGEQVTYTCATYYKMDGASNVTCINSRWTGRPTCRDTSCVNPPTVQNAYIVSRQMSKYPSGERVRYQCRSPYEMFGDEEVMCLNGNWTEPPQCKDSTGKCGPPPPIDNGDITSFPLSVYAPASSVEYQCQNLYQLEGNKRITCRNGQWSEPPKCLHPCVISREIMENYNIALRWTAKQKLYSRTGESVEFVCKRGYRLSSRSHTLRTTCWDGKLEYPTCAKR
notes: Bought protein; also called FH

- binding result [2]: no binding (tested: 10 µg/well)
- binding result [3]: no binding (tested: 10 µg/well)
- binding result [4]: binds
B2: recombinant FHR-5 (rFHR-5), polyhistidine-tagged, expressed in insect cells (other)
chain: EGTLCDFPKIHHGFLYDEEDYNPFSQVPTGEVFYYSCEYNFVSPSKSFWTRITCTEEGWSPTPKCLRMCSFPFVKNGHSESSGLIHLEGDTVQIICNTGYSLQNNEKNISCVERGWSTPPICSFTKGECHVPILEANVDAQPKKESYKVGDVLKFSCRKNLIRVGSDSVQCYQFGWSPNFPTCKGQVRSCGPPPQLSNGEVKEIRKEEYGHNEVVEYDCNPNFIINGPKKIQCVDGEWTTLPTCVEQVKTCGYIPELEYGYVQPSVPPYQHGVSVEVNCRNEYAMIGNNMITCINGIWTELPMCVATHQLKRCKIAGVNIKTLLKLSGKEFNHNSRIRYRCSDIFRYRHSVCINGKWNPEVDCTEKREQFCPPPPQIPNAQNMTTTVNYQDGEKVAVLCKENYLLPEAKEIVCKDGRWQSLPRCVESTAYCGPPPSINNGDTTSFPLSVYPPGSTVTYRCQSFYKLQGSVTVTCRNKQWSEPPRCLDPCVVSEENMNKNNIQLKWRNDGKLYAKTGDAVEFQCKFPHKAMISSPPFRAICQEGKFEYPICE
notes: Insert amplified from immediately downstream of the signal peptide-encoding region to the end of the ORF (mature FHR-5, 551 amino acids); also called His-tagged recombinant protein; not shown: 10-histidine tag coded by vector pFASTBAC1-His10+ (after a gp67 signal peptide)
